Target: CMV gB ectodomain protein (human cytomegalovirus) (UniProt P13201)

B1: TRL345 (antibody, V domains shown)
VH: QVQLVESGGGVVQPGRSLRLSCAASGFTFSDYNMHWVRQAPGKGLEWVAVISIDGTYKYSADSVAGRFSLSRDNSKNTLYLQMNSLRPDDTAIYYCARDGRSVGGFSGILDPWGQGTLVTVSS
VL: EIVMTQSPATLSLSPGDRATLSCRASQSVGSYLAWYQQKPGQAPRLLMYDSSVRATGIPARFSGSGSGTDFTLTISSLEPEDFAVYYCQQRNNWPPLTFGGGTKVEIK
B1 showed a neutralization of CMV strain AD169rUL131-GFP on ARPE epithelial cells, IC50 of 0.3 µg/mL, a neutralization of CMV strain AD169rUL131-GFP on MRC-5 fibroblasts, IC50 of 0.24 µg/mL and a neutralization of CMV strain Toledo on MRC-5 fibroblasts, IC50 of 0.19 µg/mL. It also gave a neutralization of CMV strain Towne on MRC-5 fibroblasts, IC50 of 0.21 µg/mL.

Reference: publication PMC9891502
